Sequences and labels used below:
B1: glmS ribozyme (parent)
chain: AUAAAAGCGCCAGAACUACAGAAAUGUAGUUGACGAGGAGGAGGUUUAUCGAAUUUUCGGCGGAUGCCUCCAAA

Holding throughout (conditions): with glucosamine-6-phosphate
In series [1] the parent is B1. Put plainly: self-cleavage kobs at 160 uM GlcN6P; higher = faster cleavage; RNA array. In outline: (§1)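 Glucosamine-6-phosphate in HEPES/KCl/Mg(OAc)2 buffer, at 40 μM to 10 mM, was flowed over barcoded ribozyme variants transcribed in situ by E. coli RNA polymerase on sequenced MiSeq chips. Tracking was through a hybridised Cy3 probe at 37 °C. kobs, kcat and KM came from exponential decay fits and weighted Michaelis–Menten fits of normalised per-tile medians.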

The variants in series [2] derive from B1. Put plainly: self-cleavage kobs at 640 uM GlcN6P; higher = faster cleavage; RNA array. In outline:
as §1

Series [3] covers variants of B1. Put plainly: self-cleavage kobs at 10000 uM GlcN6P; higher = faster cleavage; RNA array. The method in brief:
as §1

The variants in series [4] derive from B1. Put plainly: self-cleavage kobs at 2500 uM GlcN6P; higher = faster cleavage; RNA array. In outline:
as §1

Experimental findings from the supplement of paper PMC7125110 are described below.

± gives the standard error. Variants at the floor of the assay were thinned out.

With A48C C58G C71A, the “self-cleavage kobs at 160 uM GlcN6P” value in series [1] was under 1e-05 s⁻¹. Also, in series [2], the “self-cleavage kobs at 640 uM GlcN6P” value is under 1e-05 s⁻¹.
As for A12G U46C A48U, the “self-cleavage kobs at 160 uM GlcN6P” value in series [1] was under 1e-05 s⁻¹.
Regarding C8A G13A G37U C67U C68U, the “self-cleavage kobs at 160 uM GlcN6P” value in series [1] was 8.8e-05 ± 3.5e-05 s⁻¹. Moreover, the “self-cleavage kobs at 640 uM GlcN6P” value in series [2] is 0.000297 ± 8.5e-05 s⁻¹.
For the variant G38C U54G, in series [1], the “self-cleavage kobs at 160 uM GlcN6P” value is under 1e-05 s⁻¹. Also, the “self-cleavage kobs at 640 uM GlcN6P” value in series [2] is under 1e-05 s⁻¹. In addition, the “self-cleavage kobs at 10000 uM GlcN6P” value in series [3] is under 1e-05 s⁻¹.
Take C8U G66C: the “self-cleavage kobs at 160 uM GlcN6P” value in series [1] was under 1e-05 s⁻¹. Further, the “self-cleavage kobs at 640 uM GlcN6P” value in series [2] was under 1e-05 s⁻¹. Besides, the “self-cleavage kobs at 2500 uM GlcN6P” value in series [4] is under 1e-05 s⁻¹. In addition, in series [3], the “self-cleavage kobs at 10000 uM GlcN6P” value was under 1e-05 s⁻¹.
As to G13C A15U G51U C67U C68G, the “self-cleavage kobs at 160 uM GlcN6P” value in series [1] was determined as 6.58e-05 ± 2.5e-05 s⁻¹.
Same read-out and setting: in the case of G13U G44U it was under 1e-05 s⁻¹.
On to G35U U49G, for which the “self-cleavage kobs at 160 uM GlcN6P” value in series [1] is under 1e-05 s⁻¹. Also, the “self-cleavage kobs at 640 uM GlcN6P” value in series [2] was under 1e-05 s⁻¹. Moreover, in series [4], the “self-cleavage kobs at 2500 uM GlcN6P” value is under 1e-05 s⁻¹. Also, the “self-cleavage kobs at 10000 uM GlcN6P” value in series [3] was under 1e-05 s⁻¹.
For the variant C11A A39C U49C, the “self-cleavage kobs at 160 uM GlcN6P” value in series [1] was under 1e-05 s⁻¹. Further, the “self-cleavage kobs at 2500 uM GlcN6P” value in series [4] is under 1e-05 s⁻¹.
Regarding C16G A42G A53G C67G, the “self-cleavage kobs at 160 uM GlcN6P” value in series [1] stood at 0.000151 ± 3.4e-05 s⁻¹. Further, the “self-cleavage kobs at 640 uM GlcN6P” value in series [2] was found to be 0.000268 ± 5.9e-05 s⁻¹. The “self-cleavage kobs at 2500 uM GlcN6P” value in series [4] amounted to 0.000323 ± 8.1e-05 s⁻¹.
Consider C34U C67A, for which, in series [1], the “self-cleavage kobs at 160 uM GlcN6P” value was under 1e-05 s⁻¹. Also, the “self-cleavage kobs at 2500 uM GlcN6P” value in series [4] was under 1e-05 s⁻¹.
As to G13U A42C U54A U55G, the “self-cleavage kobs at 160 uM GlcN6P” value in series [1] was under 1e-05 s⁻¹. Besides, the “self-cleavage kobs at 640 uM GlcN6P” value in series [2] is under 1e-05 s⁻¹. Also, the “self-cleavage kobs at 2500 uM GlcN6P” value in series [4] is under 1e-05 s⁻¹.
On to A15U U30G U46G C67G, for which, in series [1], the “self-cleavage kobs at 160 uM GlcN6P” value is 5.03e-05 ± 1.7e-05 s⁻¹. The “self-cleavage kobs at 640 uM GlcN6P” value in series [2] came to 6.26e-05 ± 1.3e-05 s⁻¹. In addition, the “self-cleavage kobs at 2500 uM GlcN6P” value in series [4] is 0.000146 ± 2.2e-05 s⁻¹.
As for G7C C8U A15G G35A, the “self-cleavage kobs at 160 uM GlcN6P” value in series [1] was under 1e-05 s⁻¹. Also, the “self-cleavage kobs at 2500 uM GlcN6P” value in series [4] was under 1e-05 s⁻¹.
On to U55C C58U, for which, in series [1], the “self-cleavage kobs at 160 uM GlcN6P” value was under 1e-05 s⁻¹. Besides, the “self-cleavage kobs at 10000 uM GlcN6P” value in series [3] amounted to 6.55e-05 ± 8.7e-06 s⁻¹.
Consider C8U U56A, for which the “self-cleavage kobs at 160 uM GlcN6P” value in series [1] is under 1e-05 s⁻¹. The “self-cleavage kobs at 640 uM GlcN6P” value in series [2] is under 1e-05 s⁻¹. For the same variant, in series [4], the “self-cleavage kobs at 2500 uM GlcN6P” value was under 1e-05 s⁻¹.
G7U A14C A48U: in series [1], the “self-cleavage kobs at 160 uM GlcN6P” value is under 1e-05 s⁻¹. The “self-cleavage kobs at 640 uM GlcN6P” value in series [2] is under 1e-05 s⁻¹. Further, the “self-cleavage kobs at 2500 uM GlcN6P” value in series [4] was under 1e-05 s⁻¹.
As for C34G U47A, the “self-cleavage kobs at 160 uM GlcN6P” value in series [1] was under 1e-05 s⁻¹. Besides, the “self-cleavage kobs at 640 uM GlcN6P” value in series [2] is under 1e-05 s⁻¹. For the same variant, the “self-cleavage kobs at 2500 uM GlcN6P” value in series [4] is under 1e-05 s⁻¹.
With A12G C58U G59A, the “self-cleavage kobs at 160 uM GlcN6P” value in series [1] was under 1e-05 s⁻¹.
On to U46C C58U C67A, for which, in series [1], the “self-cleavage kobs at 160 uM GlcN6P” value is under 1e-05 s⁻¹.
As to A14G C16U U46C, in series [1], the “self-cleavage kobs at 160 uM GlcN6P” value worked out at 0.000248 ± 7.7e-05 s⁻¹.
Consider U46G U49G G63A A64C, for which the “self-cleavage kobs at 160 uM GlcN6P” value in series [1] was under 1e-05 s⁻¹. Moreover, the “self-cleavage kobs at 640 uM GlcN6P” value in series [2] is under 1e-05 s⁻¹. In addition, the “self-cleavage kobs at 2500 uM GlcN6P” value in series [4] was under 1e-05 s⁻¹.
Consider C34A G35C, for which the “self-cleavage kobs at 160 uM GlcN6P” value in series [1] is under 1e-05 s⁻¹. For the same variant, the “self-cleavage kobs at 2500 uM GlcN6P” value in series [4] was under 1e-05 s⁻¹.
Regarding G32U A48G G63C, the “self-cleavage kobs at 160 uM GlcN6P” value in series [1] was under 1e-05 s⁻¹. Besides, the “self-cleavage kobs at 2500 uM GlcN6P” value in series [4] is under 1e-05 s⁻¹.
As for G29C G35A G59U A64G, in series [1], the “self-cleavage kobs at 160 uM GlcN6P” value is under 1e-05 s⁻¹.
For the variant U54C U56A G59C U65A, the “self-cleavage kobs at 160 uM GlcN6P” value in series [1] is under 1e-05 s⁻¹. The “self-cleavage kobs at 2500 uM GlcN6P” value in series [4] was under 1e-05 s⁻¹.
Take C10U G32C A36G A39U: in series [1], the “self-cleavage kobs at 160 uM GlcN6P” value was under 1e-05 s⁻¹. For the same variant, the “self-cleavage kobs at 640 uM GlcN6P” value in series [2] was under 1e-05 s⁻¹. In series [4], the “self-cleavage kobs at 2500 uM GlcN6P” value was under 1e-05 s⁻¹.
